For one substance, HFE level by Western blot in HepG2 PCSK9 KO cells expressing HFE/β2M after 18 h with conditioned medium containing WT PCSK9 (Figure 2A) results are on record in publication PMC11119474.

In the assay the target is HFE-WT-flagM2 (homeostatic iron regulator protein) with β2M-flagM2 (UniProt Q30201).
UniProt Q30201, sequence (Q30201 23-348, chain 1 of 2): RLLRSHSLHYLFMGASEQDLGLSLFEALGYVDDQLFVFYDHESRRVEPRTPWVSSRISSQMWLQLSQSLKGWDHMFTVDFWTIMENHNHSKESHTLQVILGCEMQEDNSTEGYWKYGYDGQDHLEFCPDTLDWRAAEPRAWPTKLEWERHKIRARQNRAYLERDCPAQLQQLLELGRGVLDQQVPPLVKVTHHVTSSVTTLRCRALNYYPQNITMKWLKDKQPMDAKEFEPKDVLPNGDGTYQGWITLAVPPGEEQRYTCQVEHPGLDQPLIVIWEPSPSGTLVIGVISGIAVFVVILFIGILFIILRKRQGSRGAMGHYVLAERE
UniProt Q30201, sequence (chain, as listed by the source, chain 2 of 2): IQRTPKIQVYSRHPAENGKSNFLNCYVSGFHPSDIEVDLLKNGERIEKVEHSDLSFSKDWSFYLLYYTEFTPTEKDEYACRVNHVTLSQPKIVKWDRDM

Substance “PCSK9-WT-V5 (proprotein convertase subtilisin/kexin type 9, wild type) (from UniProt Q8NBP7 31-152; Q8NBP7 153-692) (natural protein)” showed an HFE level by Western blot in HepG2 PCSK9 KO cells expressing HFE/β2M after 18 h with conditioned medium containing WT PCSK9 (Figure 2A) of 60 % reduction.
